Laboratory results: patent US20220089678A1 (CARTESIAN THERAPEUTICS, published 2022)
Positions count from the first letter of the chain named.

Assays:
human BCMA on cells [1] = target: T1, human BCMA on cells (human, UniProt Q02223 1-184); assay: cell-based or functional assay
T1 sequence: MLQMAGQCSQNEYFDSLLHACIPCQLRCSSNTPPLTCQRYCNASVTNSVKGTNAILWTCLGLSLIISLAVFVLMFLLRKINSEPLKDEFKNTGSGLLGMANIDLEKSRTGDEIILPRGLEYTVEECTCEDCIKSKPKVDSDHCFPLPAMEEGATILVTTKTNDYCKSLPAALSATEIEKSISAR

[2] = target: T2, phycoerythrin (PE)-conjugated BCMA (Recombinant Human TNFRSF17 protein, Fc/His-tagged, R-PE labeled); Creative … (human, UniProt Q02223 1-54, R-PE labeled); assay: flow cytometry; CAR T cells stained with BCMA-PE, 3 days after electroporation
T2 construct: Bought reagent; also called BCMA-PE; not shown: Fc/His tag of the bought reagent
T2 sequence: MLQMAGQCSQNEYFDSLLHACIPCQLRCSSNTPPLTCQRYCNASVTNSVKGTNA
Experimental: (§1) CAR T cells obtained from the above-described process were tested for viability, CAR protein expression, BCMA binding, and cytotoxicity, i.e., the ability to kill BCMA+ myeloma (tumor) cells. Viability, CAR expression, and BCMA binding were determined by flow cytometry on a GUAVA® […]® 12HT Flow cytometer (EMD Millipore). To test viability, a sample of the CAR T cells was mixed with propidium iodide and run on the flow cytometer with electronic gating on fluorescence in the near infrared channel. To test CAR protein expression and BCMA binding, a sample of the CAR T cells was incubated with 0.4 ug/mL of phycoerythrin (PE)-conjugated BCMA (Recombinant Human TNFRSF17 protein, Fc/His-tagged, R-PE labeled; Creative Biomart, Shirley, N.Y.). CAR expression was assessed on the flow cytometer with electronic gating on fluorescence in the yellow channel to detect presence or absence of emission from BCMA-PE on CAR-positive and CAR-negative cells. BCMA binding was determined by measuring the intensity of fluorescence in the yellow channel to determine the relative quantity of BCMA-PE bound to labelled CAR-positive cells. For the viability, expression, and BCMA binding assays, CD8+ T cells electroporated without mRNA (CAR-negative T Cells) were tested as a parallel control.
For each of the mRNA constructs, CAR T cells were prepared by transfection into human CD8+ cells, as described in Example 1. The CAR T cells made from each mRNA construct were then tested 3 days after electroporation for BCMA binding and tumor killing, as described in Example 1.

human BCMA on cells [3] = target: T1, human BCMA on cells; assay: cell-based or functional assay; remark: listed apart in the source
[4] = target: T2, phycoerythrin (PE)-conjugated BCMA …; assay: flow cytometry; CAR T cells stained with BCMA-PE, 3 days after electroporation; remark: listed apart in the source
Experimental: as §1
Numerous CAR-encoding mRNA constructs were prepared using the mRNA construct of SEQ ID: 29 as a starting point (which encodes a CAR of sequence SEQ ID: 19 and comprises the scFv of sequence SEQ ID: 48). These constructs encoded the same or substantially the same amino acid residues in the scFv complementary-determining regions (CDRs) but varied with respect to the amino acid residues in the scFv framework regions. In making these variations, the experimenter's intent was to humanize the scFv framework regions without reducing BCMA-binding and tumor-killing properties of CAR T cells that express the CAR. For each of the mRNA constructs, CAR T cells were prepared by transfection into human CD8+ cells, substantially as described in Example 1. The CAR T cells made from each mRNA construct were then tested 3 days after electroporation for BCMA binding and/or tumor killing, as substantially described in Example 1.

B1: CAR comprising scFv-Y37 (SEQ ID NO: 60) (other)
chain: DIVLTQSPASLAVSPGQRATITCRASESVTILGSHLIHWYQQKPGQPPKLLIQLASNVQTGVPARFSGSGSGTDFTLTISSVEPEDTANYYCLQSRTIPRTFGQGTKVEIKGSTSGSGKPGSGEGSTKGQIQLVQSGPELKKPGGSVKISCKASGYTFTDYSINWVRQAPGKGLEWVGWINTETREPAYAYDFTGRFTFSADTSKSMAYLQINSLRAEDTAVYYCALDYSYAMDYWGQGTLVTVSS
notes: CAR on mRNA-electroporated human CD8+ T cells; Only the scFv is identified; not shown: rest of the CAR (hinge, transmembrane, cytoplasmic domains) not specified for this construct
For B1, the “Killing (% killed), Effector:target ratio of 1:10” value (human BCMA on cells [1]) was 83%, the “BCMA Binding (arbitrary units)” value [2] was 381 arbitrary units and the “Killing (% killed), Effector:target ratio of 1:2” value (human BCMA on cells [3]) was 83%. For the same binder, the “BCMA Binding” value [4] was 382 relative (SEQ ID: 48 = 100).

B2: CAR comprising scFv-13′ (SEQ ID NO: 69) (other)
chain: DIVLTQSPSSLSASVGDRATISCRASESVSFLGINLIHWYQQKPGQAPKLLIYLASNLETGVPARFSGSGSGTDFTLTISSVEPEDVAVYYCLQSRTLPRTFGQGTKVEIKGSTSGSGKPGSGEGSTKGQIQLVQSGPELKKPGGSVKISCAASGYTFTSYSINWVRQAPGKGLEWVGWINTETREPAYAQGFTGRFTFSADTSKSTAYLQMNSLRAEDTAVYYCALDYLYSLDFWGQGTLVTVSS
notes: as for B1
With B2 the “BCMA Binding (arbitrary units)” value [2] was 230 arbitrary units and the “Killing (% killed), Effector:target ratio of 1:2” value (human BCMA on cells [3]) was 77%.

B3: CAR comprising scFv-Y32 (SEQ ID NO: 57) (other)
chain: DIVLTQSPSSLSASVGDRATISCRASESVTILGSHLIHWYQQKPGQAPKLLIQLASNVQTGVPARFSGSGSGTDFTLTISSVEPEDVAVYYCLQSRTIPRTFGQGTKVEIKGSTSGSGKPGSGEGSTKGQIQLVQSGPELKKPGGSVKISCAASGYTFTDYSINWVRQAPGKGLEWVGWINTETREPAYAYDFRGRFTFSADTSKSTAYLQMNSLRAEDTAVYYCALDYSYAMDYWGQGTLVTVSS
notes: as for B1
In the case of B3, the “Killing (% killed), Effector:target ratio of 1:10” value (human BCMA on cells [1]) is reported as 85%, the “BCMA Binding (arbitrary units)” value [2] is reported as 343 arbitrary units and the “Killing (% killed), Effector:target ratio of 1:2” value (human BCMA on cells [3]) is reported as 85%. The “BCMA Binding” value [4] was 460 relative (SEQ ID: 48 = 100) and the “BCMA Binding (relative to SEQ ID: 54)” value [4] was 124 relative to SEQ ID: 54 = 100.

B4: CAR comprising scFv-21′ (SEQ ID NO: 70) (other)
chain: B3 chain with Q53N, Q59N
notes: as for B1
B4 was tested, and the “BCMA Binding (arbitrary units)” value [2] was 404 arbitrary units and the “Killing (% killed), Effector:target ratio of 1:2” value (human BCMA on cells [3]) was 83%.
